Laboratory results published in paper PMC8437434.

Assays:
[1] = target: tau^4R (residues 244-372, C322A) (UniProt P10636)
[2] = target: tau^4R (residues 244-372, C322A) (UniProt P10636); remark: listed apart in the source

Chain of tau^4R (residues 244-372, C322A) (P10636 561-689 C639A): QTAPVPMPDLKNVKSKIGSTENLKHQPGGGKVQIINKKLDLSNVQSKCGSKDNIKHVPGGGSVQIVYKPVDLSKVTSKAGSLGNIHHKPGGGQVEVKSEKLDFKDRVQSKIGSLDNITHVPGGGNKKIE

reduction of tau fibril mass (unnormalised ThT kinetics) at 1:1 HSPB1:tau [1] [%] | reduction of tau fibril mass (kinetic measurements) at equimolar HSPB1:tau [2] [%] | reduction of tau fibril mass (unnormalised ThT kinetics), DNAJB1:tau 0.5:1 (67%) to 1:1 [1] [%] | Substance
47 | 45 | – | HSPB1 3D GXG variant (S15D, S78D, S82D, I181G, V183G) (from UniProt P04792 1-205) (natural protein)
– | – | 94 | full-length DNAJB1 (from UniProt P25685 1-340) (natural protein)
